Numbered stars: 1 amine (or outer) side, 2 acyl side, 3 side chain; on linkers, the order of the positions; unused ones are H or OH. Square brackets hold non-standard residues; d marks the D form. Primed or numbered codes have the meaning given here. Side chains are listed from the residue outwards. Ends that are not written are not given here. * marks the point of attachment. 40K‑TE PEG″ = 40 kDa PEG bound to Cys via thioether made from an iodoacetyl-functionalised PEG; γGlu = O=C(O)[C@H](CCC(=O)[*:2])N[*:1]; Palmitoyl = CCCCCCCCCCCCCCCC(=O)*; Orn = NCCC[C@H](N)C(=O)O; Aib = CC(C)(N)C(=O)O
T1: GIP receptor
T1 sequence (P48546 whole entry, species assumed, looked up): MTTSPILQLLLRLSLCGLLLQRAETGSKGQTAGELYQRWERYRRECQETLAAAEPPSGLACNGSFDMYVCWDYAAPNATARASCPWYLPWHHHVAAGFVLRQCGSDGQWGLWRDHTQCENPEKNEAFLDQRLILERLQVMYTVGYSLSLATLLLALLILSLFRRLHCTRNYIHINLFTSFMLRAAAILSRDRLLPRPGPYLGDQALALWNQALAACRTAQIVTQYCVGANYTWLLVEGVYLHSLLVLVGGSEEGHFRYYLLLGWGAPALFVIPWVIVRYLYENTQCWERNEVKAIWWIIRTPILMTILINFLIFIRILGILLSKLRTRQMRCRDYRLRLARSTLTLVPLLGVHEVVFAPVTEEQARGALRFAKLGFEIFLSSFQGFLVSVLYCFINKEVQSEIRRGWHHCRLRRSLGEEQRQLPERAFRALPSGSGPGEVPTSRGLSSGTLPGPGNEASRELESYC

B1: peptide of SEQ ID NO: 33 (peptide)
peptide: H[Aib]QGTFTSDK([γGlu-γGlu-Palmitoyl])SKYLD[Aib]RAAQDFVQWLM[Orn]T[Orn]E-OH
modifications: N-terminus assumed
SMILES: CCCCCCCCCCCCCCCC(=O)N[C@@H](CCC(=O)N[C@@H](CCC(=O)NCCCC[C@H](NC(=O)[C@H](CC(=O)O)NC(=O)[C@H](CO)NC(=O)[C@@H](NC(=O)[C@H](Cc1ccccc1)NC(=O)[C@@H](NC(=O)CNC(=O)[C@H](CCC(N)=O)NC(=O)C(C)(C)NC(=O)[C@@H](N)Cc1c[nH]cn1)[C@@H](C)O)[C@@H](C)O)C(=O)N[C@@H](CO)C(=O)N[C@@H](CCCCN)C(=O)N[C@@H](Cc1ccc(O)cc1)C(=O)N[C@@H](CC(C)C)C(=O)N[C@@H](CC(=O)O)C(=O)NC(C)(C)C(=O)N[C@@H](CCCNC(=N)N)C(=O)N[C@@H](C)C(=O)N[C@@H](C)C(=O)N[C@@H](CCC(N)=O)C(=O)N[C@@H](CC(=O)O)C(=O)N[C@@H](Cc1ccccc1)C(=O)N[C@H](C(=O)N[C@@H](CCC(N)=O)C(=O)N[C@@H](Cc1c[nH]c2ccccc12)C(=O)N[C@@H](CC(C)C)C(=O)N[C@@H](CCSC)C(=O)N[C@@H](CCCN)C(=O)N[C@H](C(=O)N[C@@H](CCCN)C(=O)N[C@@H](CCC(=O)O)C(=O)O)[C@@H](C)O)C(C)C)C(=O)O)C(=O)O
B2: peptide of SEQ ID NO: 31 (peptide)
peptide: H[Aib]QGTFTSDK([γGlu-γGlu-Palmitoyl])SKYLD[Aib]RAAQDFVQWLMKGRG-OH
modifications: N-terminus assumed
SMILES: CCCCCCCCCCCCCCCC(=O)N[C@@H](CCC(=O)N[C@@H](CCC(=O)NCCCC[C@H](NC(=O)[C@H](CC(=O)O)NC(=O)[C@H](CO)NC(=O)[C@@H](NC(=O)[C@H](Cc1ccccc1)NC(=O)[C@@H](NC(=O)CNC(=O)[C@H](CCC(N)=O)NC(=O)C(C)(C)NC(=O)[C@@H](N)Cc1c[nH]cn1)[C@@H](C)O)[C@@H](C)O)C(=O)N[C@@H](CO)C(=O)N[C@@H](CCCCN)C(=O)N[C@@H](Cc1ccc(O)cc1)C(=O)N[C@@H](CC(C)C)C(=O)N[C@@H](CC(=O)O)C(=O)NC(C)(C)C(=O)N[C@@H](CCCNC(=N)N)C(=O)N[C@@H](C)C(=O)N[C@@H](C)C(=O)N[C@@H](CCC(N)=O)C(=O)N[C@@H](CC(=O)O)C(=O)N[C@@H](Cc1ccccc1)C(=O)N[C@H](C(=O)N[C@@H](CCC(N)=O)C(=O)N[C@@H](Cc1c[nH]c2ccccc12)C(=O)N[C@@H](CC(C)C)C(=O)N[C@@H](CCSC)C(=O)N[C@@H](CCCCN)C(=O)NCC(=O)N[C@@H](CCCNC(=N)N)C(=O)NCC(=O)O)C(C)C)C(=O)O)C(=O)O

Key:
Assay in all cases: cell-based or functional assay
glucagon receptor = target: glucagon receptor
GLP-1 receptor = target: GLP-1 receptor
GIP receptor = target: T1, GIP receptor

Binder	EC50 (nM) at glucagon receptor (glucagon receptor) [nM]	EC50 (nM) at GLP-1 receptor (GLP-1 receptor) [nM]	EC50 (nM) at GIP receptor (GIP receptor) [nM]
B1	0.023	0.019	3.96
H[Aib]QGTFTSDYSKYLDERRA[Aib]EFVC(40K‑TE PEG″)WLLDGGPSSGAPPPS-NH2 [peptide of SEQ ID NO: 35]	1.18	0.085	16.1
B2	0.016	0.007	2.34
H[Aib]QGTFTSDK([γGlu-γGlu-Palmitoyl])SKYLD[Aib]RAAQDFVQWLMDTK[dA]-OH [peptide of SEQ ID NO: 32]	0.007	0.008	2.08

From patent US20120329707A1 (INDIANA UNIVERSITY RESEARCH AND TECHNOLOGY, published 2012)
